# Reference: patent US12280118B2 (Kyowa Kirin Co., Ltd., priority 2017, dated 2025)
# Positions count from the first letter of the chain named. Numbers in names are those of the source.
# B1: F78C-V40(IAc)/L12C-11: Cys-PEGylated and glycosylated IL-2 variant; F78 to C-V40(IAc); L12 to C-disialo; C125S (protein, UniProt P60568 21-153, looked up, variant L12C F78C C125S)
# Interleukin-2: APTSSSTKKTQCQLEHLLLDLQMILNGINNYKNPKLTRMLTFKFYMPKKATELKHLQCLEEELKPLEEVLNLAQSKNCHLRPRDLISNINVIVLELKGSETTFMCEYADETATIVEFLNRWITFSQSIISTLT
# modifications: PEG on C78; disialo glycan on C12
# notes: Cys-PEGylated and glycosylated IL-2 variant; F78 to C-V40(IAc); L12 to C-disialo; C125S
# B2: V91C-11/V115C-11: glycosylated IL-2 variant; V91, V115 to C-disialo; C125S (protein, UniProt P60568 21-153, looked up, variant V91C V115C C125S)
# Interleukin-2: B1 Interleukin-2 with C12L, C78F, V91C, V115C
# modifications: disialo glycans on cysteines
# notes: glycosylated IL-2 variant; V91, V115 to C-disialo; C125S
# B3: T3C-Y50(IAc)/E15C-11: Cys-PEGylated and glycosylated IL-2 variant; T3 to C-Y50(IAc); E15 to C-disialo; C125S (protein, UniProt P60568 21-153, looked up, variant T3C E15C C125S)
# Interleukin-2: B1 Interleukin-2 with T3C, C12L, E15C, C78F
# modifications: PEG on C3; disialo glycan on C15
# notes: Cys-PEGylated and glycosylated IL-2 variant; T3 to C-Y50(IAc); E15 to C-disialo; C125S
# B4: A1C-11/T3C-11/S5C-11/L12C-11/V91C-11: glycosylated IL-2 variant; A1, T3, S5, L12, V91 to C-disialo; C125S (protein, UniProt P60568 21-153, looked up, variant A1C T3C S5C L12C V91C C125S)
# Interleukin-2: B1 Interleukin-2 with A1C, T3C, S5C, C78F, V91C
# modifications: disialo glycans on cysteines
# notes: glycosylated IL-2 variant; A1, T3, S5, L12, V91 to C-disialo; C125S
# B5: T3C-Li20(IAc)/L12C-11/V91C-11: Cys-PEGylated and glycosylated IL-2 variant; T3 to C-Li20(IAc); L12, V91 to C-disialo; C125S (protein, UniProt P60568 21-153, looked up, variant T3C L12C V91C C125S)
# Interleukin-2: B1 Interleukin-2 with T3C, C78F, V91C
# modifications: PEG on C3; disialo glycans
# notes: Cys-PEGylated and glycosylated IL-2 variant; T3 to C-Li20(IAc); L12, V91 to C-disialo; C125S
# B6: T3C-V80(Mal)/E15C-11: Cys-PEGylated and glycosylated IL-2 variant; T3 to C-V80(Mal); E15 to C-disialo; C125S (protein, UniProt P60568 21-153, looked up, variant T3C E15C C125S)
# Interleukin-2: B1 Interleukin-2 with T3C, C12L, E15C, C78F
# modifications: maleimide PEG on C3; disialo glycan on C15
# notes: Cys-PEGylated and glycosylated IL-2 variant; T3 to C-V80(Mal); E15 to C-disialo; C125S
# System: human Tregs
# Test: Treg proliferation activity
# Assay type: cell-based
# Details: Treg; IL-2 concentration of 65 nmol/L
# Protocol: After human frozen peripheral blood mononuclear cells (PBMCs) (manufactured by AllCells) were melted in a warm bath at 37° C., the cells were suspended in 10 mL of a culture medium [X-vivo15 SFM (manufactured by Lonza) 1000 mL, heat-inactivated human AB serum (manufactured by SIGMA) 150 mL], and a T-75 flask for adhesion (manufactured by greiner bio-one) was seeded the cells, and allowed to stand for 24 hours to culture the cells (37° C., under conditions of 95 vol % air/5 vol % CO2). A total amount of cells was collected, and CD4^+ T cells were enriched using EasySep Human CD4^+ Tcells Enrichment kit (manufactured by […] Technologies).
# After staining (on ice, 30 minutes) with Anti-human CD4-Alexa 488 (manufactured by Biolegend), anti-human CD25-PE (manufactured by BD Pharmingen), and anti-human CD127-BV421 (manufactured by Biolegend), a CD4^+ CD25^+ CD127^low fraction (Treg) was separated using a cell sorter SH800 (manufactured by SONY Biotechnology).
# The separated Treg and CD3/CD28 Dynabeads (manufactured by Thermo Fischer […]) washed three times with the culture medium were mixed with each other, and suspended in a culture medium at 3.4×10^4 cells/mL, respectively, and a 96-well U bottom plate (manufactured by Corning) was seeded with at 150 μL/well.
# After culturing for 5 to 7 days, 50 μL of a total volume of each well was transferred to a 96-well white plate. A Celltiter-Glo solution was added at 50 μL/well, and the mixture was allowed to stand at room temperature for 10 minutes, and then a luminescence value was measured using a luminometer (manufactured by TURNER BIOSYSTEMS).
row,Molecule,IL-2-dependent cell proliferation rate [%]
1,B1,≥ 80

# Same assay, conditions: with respect to IL-2 (P) or 8His-IL-2 (P) as control
row,Molecule,Treg proliferation activity
1,E15C-11: glycosylated IL-2 variant; E15 to C-disialo; C125S,maintained
2,H16C-2: glycosylated IL-2 variant; H16 to C-lactose,maintained
3,L19C-9: glycosylated IL-2 variant; L19 to C-asialo,maintained
4,N88C-2: glycosylated IL-2 variant; N88 to C-lactose,maintained
5,B1,lowered
6,B2,maintained
7,B3,maintained
8,B4,lowered
9,B5,lowered
10,B6,lowered

# System: human NK cells
# Test: NK cell proliferation activity
# Assay type: cell-based
# Details: NK cells; X-vivo 10 SFM; IL-2 concentration of 65 nmol/L
# Protocol: A separation of NK cells from human PBMC was performed by a method below. Frozen human PBMC was thawed according to the method described in Example 13, and CD56^+ NK cells were separated using NK Cell Isolation Kit human (manufactured by Miltenyi Biotech). The separated cells were washed three times with a culture medium (1500 rpm, room temperature, 5 minutes) and then subjected to a proliferation assay below.
# FIGS. 2A to 2H show results obtained using a proliferation medium, and FIGS. 2I to 2K show results obtained using the X-vivo 10 SFM.
row,Molecule,IL-2-dependent cell proliferation rate [%]
1,B4,≤ 20

# Same assay, conditions: compared with IL-2 (P) and 8His-IL-2 as controls
row,Molecule,cell proliferation activity on NK cells
1,E15C-11: glycosylated IL-2 variant; E15 to C-disialo; C125S,greatly reduced
2,H16C-2: glycosylated IL-2 variant; H16 to C-lactose,greatly reduced
3,L19C-9: glycosylated IL-2 variant; L19 to C-asialo,greatly reduced
4,N88C-2: glycosylated IL-2 variant; N88 to C-lactose,greatly reduced
5,B1,greatly reduced
6,B2,greatly reduced
7,B3,greatly reduced
8,B4,greatly reduced
9,B5,greatly reduced
10,B6,greatly reduced

# System: human Tresp
# Test: Inhibitory activity of IL-2-stimulated Tregs on Tresp proliferation
# Assay type: cell-based
# Details: Tregs cultured 7 days with IL-2 (final concentration 65 nM); compared with unstimulated Treg
# Protocol: All cells were separated from each other by the same lot of frozen human PBMC.
# Seven days before the assay, Tregs were separated from the frozen human PBMCs as described in Example 13.
# The cell preparation on the day of test was performed as follows. Tregs were separated from the frozen human PBMC by the method described in Example 13 and used as unstimulated Tregs. After CD3^+CD25^− T cells were separated from the frozen human PBMC, by using EasySep Human T Cell Enrichment Kit (manufactured by [sequence] Technologies) and EasySep Human Pan-CD25 Positive Selection and Depletion Kit (manufactured by [sequence] Technologies), the cells were labeled by reacting Celltrace violet (manufactured by Thermo Fischer [sequence]) diluted to 40 μmol/L with a 10% FBS-containing RPMI1640 medium, at room temperature for 5 minutes.
# The obtained cells were used as responder T cells (Tresp). HLA-DR+ cells were separated from frozen human PBMCs using Anti-HLA-DR MicroBeads, human (manufactured by Miltenyi Biotec). The obtained cells were used as Antigen presenting cell (APC).
# After the obtained cells were suspended in X-vivo 15 SFM to which an anti-CD3 antibody OKT3 (manufactured by Biolegend) was added to obtain a final concentration of 0.5 μg/mL, a 96-well V-bottom plate (manufactured by Sumitomo Bakelite) was seeded with Tresp at 2×10^4 cells/well (50 μL), APC at 1×10^5 cells/well (50 μL), and Tregs at 1.6×10^2 to 5×10^3 cells/well (50 μL) (Tresp:Treg=4:1 to 128:1), and the cells were cultured at 37° C. under 5% CO2 for 4 days.
# Thereafter, the cells were stained with anti-human CD4-APC (manufactured by BD Pharmingen) and anti-human CD8-PE (manufactured by BD Pharmingen) (at room temperature for 15 minutes), and then various fluorescent intensities were measured by flow cytometer FACS Canto II (manufactured by BD Biosciences).
# The obtained data was exported as FCS file, and then analyzed using data analysis software FLowJo (TreeStar, version 7.6.5) for a division index value, which is an average number of cell divisions in CD4^+ Tresp or CD8^+ Tresp.
row,Molecule,proliferation of Tresp in the presence of IL-2-stimulated Tregs
1,H16C-2: glycosylated IL-2 variant; H16 to C-lactose,inhibited
2,L19C-9: glycosylated IL-2 variant; L19 to C-asialo,inhibited
3,N88C-2: glycosylated IL-2 variant; N88 to C-lactose,inhibited
